In publication PMC6456213, “LurR is a regulator of the central lactate oxidation pathway in sulfate-reducing Desulfovibrio species”:

What was measured:
[1] = target: T1, LurR (Desulfovibrio vulgaris Hildenborough) (UniProt Q726T3); assay: EMSA; conditions: 10 mM Tris-HCl pH 7.5, 50 mM KCl, 5 mM MgCl2, 1 ug/ml poly dI.dC, 100 fmol biotinylated DNA in 20 ul, room temperature, 20 min
T1 sequence: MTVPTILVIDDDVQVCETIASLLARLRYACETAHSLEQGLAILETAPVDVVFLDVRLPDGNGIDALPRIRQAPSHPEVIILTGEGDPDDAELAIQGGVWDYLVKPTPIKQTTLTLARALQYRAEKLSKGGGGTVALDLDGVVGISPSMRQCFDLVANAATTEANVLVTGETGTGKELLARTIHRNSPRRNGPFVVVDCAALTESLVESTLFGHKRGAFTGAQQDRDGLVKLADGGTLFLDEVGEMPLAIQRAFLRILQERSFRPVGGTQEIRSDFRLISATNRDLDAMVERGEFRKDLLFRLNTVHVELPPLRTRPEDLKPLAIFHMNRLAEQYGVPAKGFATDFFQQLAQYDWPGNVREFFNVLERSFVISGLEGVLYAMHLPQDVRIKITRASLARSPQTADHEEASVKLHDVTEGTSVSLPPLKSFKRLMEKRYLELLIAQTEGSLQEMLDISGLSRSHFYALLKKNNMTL

[2] = target: T2, PhoB (Desulfovibrio vulgaris Hildenborough) (UniProt Q72D47); assay: EMSA; conditions: 10 mM Tris-HCl pH 7.5, 50 mM KCl, 5 mM MgCl2, 1 ug/ml poly dI.dC, 100 fmol biotinylated DNA in 20 ul, room temperature, 20 min
T2 sequence: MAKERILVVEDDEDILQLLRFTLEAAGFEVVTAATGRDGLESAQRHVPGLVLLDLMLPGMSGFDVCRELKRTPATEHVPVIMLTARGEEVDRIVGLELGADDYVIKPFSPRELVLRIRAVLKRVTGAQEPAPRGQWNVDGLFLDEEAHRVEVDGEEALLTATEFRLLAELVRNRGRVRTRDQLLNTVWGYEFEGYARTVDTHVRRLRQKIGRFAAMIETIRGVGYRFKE

LurR = target: T3, LurR (Desulfovibrio vulgaris Hildenborough, UniProt Q726T3 1-474); assay: EMSA; 0.5-1 pmol LurR; 10 mM Tris-HCl pH 7.5, 50 mM KCl, 5 mM MgCl2, 1 ug/ml poly dI.dC, 100 fmol biotinylated DNA in 20 ul, room temperature, 20 min; conditions: protein: recombinant; chain copies: 2; label: biotin on one strand
T3 sequence: T1 sequence

## CGAGAAACGACAGCCGGAGGAAAAACCAAGGTTACAGCATAGTTACAGATAACACACCATTGGCACATTTCTTGTTAAACTTGCGGAGTTCGCGCTCTCCGCGCAACGGTCTCGGGCTCGCCCGCAAGCACCGTGAACTCCAGCCTCCGGCCCCCGGCGGCATGCCATTTTCACCACGCGCCCACCACAGGGCAGAAAAAGGAGATCGTAAATGGCCAAG (double strand) [por promoter substrate IV (220 bp)]
[1]
  binding: no binding
[2]
  binding: binds

## GTCAGTAGGGTAACGCCACACGAAGTCCGCTTTTCAAGACACGCTACCACGCAACCCCATCCACGAGAAACGACAGCCGGAGGAAAAACCAAGGTTACAGCATAGTTACAGATAACACACCATTGGCACATTTCTTGTTAAACTTGCGGAGTTCGCGCTCTCCGCGCAACGGTCTCGGGCTCGCCCGCAAGCACCGTGAACTCCAGCCTCCGGCCCCCGGCGGCATGCCATTTTCACCACGCGCCCACCACAGGGCAGAAAAAGGAGATCGTAAATGGCCAAG (double strand) [por promoter substrate III (283 bp)]
[1]
  binding: binds
[2]
  binding: binds

B1: por LurR motif mut oligo (dsDNA)
DNA 1: GCCACACGAACTGCGCTTTTCAATCAACGCTACCAC
DNA 2: GTGGTAGCGTTGATTGAAAAGCGCAGTTCGTGTGGC
LurR
  binding result: no binding
